Data from patent US6525022B1, “Receptor specific atrial natriuretic peptides” (Genentech, Inc., priority 1993, dated 2003).
Bridges are numbered along the chain shown (N, C = ends). Where no end group is shown, it is not given here. [ ]: non-standard residue; d: D form. Mpa = O=C(O)CCS

T1: human natriuretic peptide receptor-A (human, UniProt P16066 33-1061)
T1 construct: whole, on cells; also called hNPR-A; human NPR-A
T1 sequence (looked up): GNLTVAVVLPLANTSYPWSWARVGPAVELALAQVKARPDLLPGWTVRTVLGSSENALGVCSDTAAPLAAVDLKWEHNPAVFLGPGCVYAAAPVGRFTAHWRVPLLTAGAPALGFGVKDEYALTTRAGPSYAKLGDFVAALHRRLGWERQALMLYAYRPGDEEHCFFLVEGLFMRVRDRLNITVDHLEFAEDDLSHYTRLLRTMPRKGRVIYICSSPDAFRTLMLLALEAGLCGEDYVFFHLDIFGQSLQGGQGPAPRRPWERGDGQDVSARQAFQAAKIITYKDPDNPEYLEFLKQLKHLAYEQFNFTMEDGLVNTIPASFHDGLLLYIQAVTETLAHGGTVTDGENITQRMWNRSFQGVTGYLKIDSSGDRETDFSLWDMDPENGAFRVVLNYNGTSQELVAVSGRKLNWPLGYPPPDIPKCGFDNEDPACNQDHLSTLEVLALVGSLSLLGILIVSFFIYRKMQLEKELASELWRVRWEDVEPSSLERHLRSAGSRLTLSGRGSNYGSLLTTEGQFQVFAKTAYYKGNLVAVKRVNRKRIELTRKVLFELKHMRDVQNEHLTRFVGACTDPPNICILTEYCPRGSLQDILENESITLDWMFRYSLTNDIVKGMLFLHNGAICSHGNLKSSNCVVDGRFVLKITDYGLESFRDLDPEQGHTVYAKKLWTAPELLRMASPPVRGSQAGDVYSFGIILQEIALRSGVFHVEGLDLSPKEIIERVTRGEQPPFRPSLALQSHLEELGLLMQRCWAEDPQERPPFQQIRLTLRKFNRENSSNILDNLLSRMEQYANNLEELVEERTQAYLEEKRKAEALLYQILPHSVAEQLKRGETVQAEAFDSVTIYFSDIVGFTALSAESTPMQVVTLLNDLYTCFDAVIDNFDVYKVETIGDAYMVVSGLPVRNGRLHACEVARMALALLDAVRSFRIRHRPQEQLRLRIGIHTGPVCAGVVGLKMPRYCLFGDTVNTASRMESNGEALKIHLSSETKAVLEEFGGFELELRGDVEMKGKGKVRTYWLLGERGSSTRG

T2: human natriuretic peptide clearance receptor-C (human, UniProt P17342 27-541)
T2 construct: whole, on cells; also called hNPR-C; human NPR-C
T2 sequence (looked up): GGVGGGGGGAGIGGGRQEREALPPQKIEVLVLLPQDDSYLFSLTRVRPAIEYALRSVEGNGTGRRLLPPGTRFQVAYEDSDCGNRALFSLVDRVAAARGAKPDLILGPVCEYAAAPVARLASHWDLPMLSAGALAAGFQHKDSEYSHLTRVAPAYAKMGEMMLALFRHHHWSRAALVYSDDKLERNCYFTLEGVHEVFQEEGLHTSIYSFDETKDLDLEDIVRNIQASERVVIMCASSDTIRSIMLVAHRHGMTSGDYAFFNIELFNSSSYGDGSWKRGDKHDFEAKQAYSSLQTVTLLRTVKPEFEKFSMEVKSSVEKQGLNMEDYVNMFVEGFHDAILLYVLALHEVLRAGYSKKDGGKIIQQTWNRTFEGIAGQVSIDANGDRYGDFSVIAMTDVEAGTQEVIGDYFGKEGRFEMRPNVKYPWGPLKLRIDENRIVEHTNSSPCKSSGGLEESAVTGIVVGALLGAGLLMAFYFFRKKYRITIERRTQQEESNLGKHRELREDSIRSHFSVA

T3: human neutral endopeptidase 24.11 (human), P08473
T3 chain: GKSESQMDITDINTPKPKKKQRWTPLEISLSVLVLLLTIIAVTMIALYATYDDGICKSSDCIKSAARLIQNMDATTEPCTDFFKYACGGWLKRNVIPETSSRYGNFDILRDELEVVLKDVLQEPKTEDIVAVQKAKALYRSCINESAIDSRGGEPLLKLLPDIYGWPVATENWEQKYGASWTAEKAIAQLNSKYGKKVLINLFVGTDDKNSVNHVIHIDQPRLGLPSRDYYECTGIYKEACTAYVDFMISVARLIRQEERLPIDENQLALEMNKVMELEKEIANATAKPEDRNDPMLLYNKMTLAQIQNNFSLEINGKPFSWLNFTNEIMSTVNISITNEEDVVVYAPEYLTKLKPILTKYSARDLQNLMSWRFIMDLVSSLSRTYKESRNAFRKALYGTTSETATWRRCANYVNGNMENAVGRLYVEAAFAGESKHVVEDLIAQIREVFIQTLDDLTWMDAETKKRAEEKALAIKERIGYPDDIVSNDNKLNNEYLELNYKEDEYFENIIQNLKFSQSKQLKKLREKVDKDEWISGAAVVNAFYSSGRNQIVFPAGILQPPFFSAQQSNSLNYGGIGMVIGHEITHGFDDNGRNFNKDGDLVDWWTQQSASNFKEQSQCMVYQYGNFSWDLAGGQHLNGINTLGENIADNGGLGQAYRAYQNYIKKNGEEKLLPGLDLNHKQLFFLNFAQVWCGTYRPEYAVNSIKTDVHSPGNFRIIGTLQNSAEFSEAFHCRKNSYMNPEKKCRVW

T4: human natriuretic peptide clearance receptor-C (human), P17342
T4 chain: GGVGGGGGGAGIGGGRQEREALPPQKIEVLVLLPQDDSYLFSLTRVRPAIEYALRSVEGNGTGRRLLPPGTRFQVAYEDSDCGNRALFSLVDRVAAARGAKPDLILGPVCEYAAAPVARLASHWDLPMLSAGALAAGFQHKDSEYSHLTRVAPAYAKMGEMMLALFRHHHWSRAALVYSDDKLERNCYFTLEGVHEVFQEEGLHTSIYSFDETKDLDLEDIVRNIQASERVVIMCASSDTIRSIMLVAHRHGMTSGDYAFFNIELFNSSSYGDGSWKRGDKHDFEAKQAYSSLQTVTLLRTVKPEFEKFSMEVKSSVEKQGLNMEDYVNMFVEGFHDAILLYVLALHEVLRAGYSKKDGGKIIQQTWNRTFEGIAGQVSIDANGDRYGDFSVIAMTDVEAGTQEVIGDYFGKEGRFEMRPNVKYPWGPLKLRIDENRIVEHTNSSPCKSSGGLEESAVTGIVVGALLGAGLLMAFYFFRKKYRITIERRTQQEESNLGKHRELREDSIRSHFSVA

T5: human natriuretic peptide receptor-A (human), P16066
T5 chain: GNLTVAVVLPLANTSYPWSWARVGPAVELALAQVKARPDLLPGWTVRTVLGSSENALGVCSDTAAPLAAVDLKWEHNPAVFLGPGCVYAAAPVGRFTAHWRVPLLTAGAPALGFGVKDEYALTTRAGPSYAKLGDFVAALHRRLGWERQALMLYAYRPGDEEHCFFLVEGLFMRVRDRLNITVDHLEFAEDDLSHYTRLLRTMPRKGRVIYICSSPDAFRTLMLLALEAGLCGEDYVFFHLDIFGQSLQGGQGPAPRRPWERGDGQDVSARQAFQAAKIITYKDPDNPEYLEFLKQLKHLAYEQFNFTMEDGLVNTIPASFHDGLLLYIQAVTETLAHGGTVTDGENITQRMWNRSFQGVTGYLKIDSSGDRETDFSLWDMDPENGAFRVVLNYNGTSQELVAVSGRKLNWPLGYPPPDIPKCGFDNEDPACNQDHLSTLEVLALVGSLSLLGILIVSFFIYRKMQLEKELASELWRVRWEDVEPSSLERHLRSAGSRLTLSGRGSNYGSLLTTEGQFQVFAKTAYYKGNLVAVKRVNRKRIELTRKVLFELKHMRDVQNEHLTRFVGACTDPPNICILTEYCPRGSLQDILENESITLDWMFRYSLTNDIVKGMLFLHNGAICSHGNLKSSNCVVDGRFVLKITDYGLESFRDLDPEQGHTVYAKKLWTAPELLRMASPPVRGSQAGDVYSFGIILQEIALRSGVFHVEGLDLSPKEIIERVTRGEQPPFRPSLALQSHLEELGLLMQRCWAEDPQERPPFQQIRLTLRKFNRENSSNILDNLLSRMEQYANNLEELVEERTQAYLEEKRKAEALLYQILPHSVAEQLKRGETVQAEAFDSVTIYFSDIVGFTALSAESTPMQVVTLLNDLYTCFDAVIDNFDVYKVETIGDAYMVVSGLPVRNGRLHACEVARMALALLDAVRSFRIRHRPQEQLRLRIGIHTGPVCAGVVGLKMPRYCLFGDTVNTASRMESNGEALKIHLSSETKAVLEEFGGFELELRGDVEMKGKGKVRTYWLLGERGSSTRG


Columns and labels:
[1] = target: human neutral endopeptidase 24.11 (human, UniProt P08473 2-750, limits assumed); test: cell-based or functional assay
[2] = target: T1, human natriuretic peptide receptor-A; test: competition binding, Table I; tracer and receptor format not given
[3] = target: T2, human natriuretic peptide clearance …; test: as above
[4] = target: T3, human neutral endopeptidase 24.11 …; test: cell-based or functional assay
[5] = target: T4, human natriuretic peptide clearance …; test: competition binding, membranes; conditions: chains peptide; modification not given
[6] = target: T5, human natriuretic peptide receptor-A …; test: competition binding vs 125I-rat ANP, membranes; conditions: chains peptide; modification not given
[7] = target: T4, human natriuretic peptide clearance …; test: competition binding, Table I; tracer and receptor format not given
[8] = target: T5, human natriuretic peptide receptor-A …; test: as above

Binder	IC50 [2]	IC50 [3]	Half-Life [4]	further results
[Mpa]F[dA]GDIDRIRAQSGLGCNSFRY (ends and bridges not checked) [ANF 92]	–	–	–	Half-Life [1]: 1.77 h
[Mpa]F[dT]GSIDRIRAQSGLGCNSFRY (disulfide 1-17) [ANF 80]	0.423 nM	739 nM	–	–
SLRRSSCFGKSMDRIGAQSGLGCNSFRY (modifications not checked) [ANF 60]	–	–	5.07 h	IC50 [7]: 5.98 nM; IC50 [8]: 0.112 nM

Now from value to binder, other results behind:

IC50 [2]	IC50 [3]	Half-Life [4]	Binder	further results
1.2 nM	6140 nM	–	SLRRSSCF[dA]GDIDRIRAQSGLGCNSFRY (disulfide 7-23, Cys7-Cys23 disulfide; also called hANF(1-28) G9(d-Ala), R11D, M12I, G16R) [ANF 90]	–
–	–	2.75 h	SLRRSSCFGGRIDRIGAQSGLGCNSFRY [rat ANP]	IC50 [5]: 0.145 nM; IC50 [6]: 0.181 nM
